Source: patent US20030186258

Biological target: fusion protein PNP20aa-hGH (UniProt P01241)
Sequence (P01241 27-217): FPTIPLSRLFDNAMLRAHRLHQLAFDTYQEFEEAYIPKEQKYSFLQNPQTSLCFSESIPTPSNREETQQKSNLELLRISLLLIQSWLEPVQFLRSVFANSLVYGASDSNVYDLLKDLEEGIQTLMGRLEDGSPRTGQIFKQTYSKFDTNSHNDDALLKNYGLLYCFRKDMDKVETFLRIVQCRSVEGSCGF

Substance: ss-Kex1 protease immobilised on Eupergit C250L resin
- digestion of the fused protein (SDS-PAGE), 15 hours: almost complete: digestion is obtained after 15 hours
